{
  "source": "paper PMC4693281",
  "parents": {"B1": {"name": "bovine ZP3 fragment Arg-32 to Glu-178, N-terminal His-tag and S-tag [modified: N-glycosylated Asn-124 and Asn-146; N-glycosylated Asn-124 and Asn-146] [bovine] / bovine ZP4 (Lys-25 to Arg-464) with N-terminal FLAG-tag and … (parent)", "chain 1": "RFRPSKPPAVMVECQEAQLVVTVDKDLFGTGKLIRPADLTLGPDNCEPLASADTDGVVRFAVGLHECGNILQVTDNALVYSTFLLHNPRPAGNLSILRTNRAEVPIECHYPRQGNVSSWAIQPTWVPFRTTVFSEEKLVFSLRLMEE", "chain 2": "KVPEYPDELRCGLRSFQFTINPLSQETETPPVLVAWDNHGLPHSLQNDSDCGTWVSEGPGSSLVGEASYSGCYVTEWESYYIMTVGIERAGVSGSGAFIETKLFKCPVNLPDVPNAGLCDSVPVWDRLPCAPSPITQGDCKQLGCCYNSEEVISCYYGNTVTSHCTQDGHFSIAVSRNVTSPPLLLNSVHLAFRNDSECKPVMATHTFVLFRFPFTTCGTTKQITGKQAVYENELVAARDVRTWSRGSITRDSTFRLQVSCSYSASSSALPVNVQVLTLPPPLPETQPGNLTLELKIAKDKRYRSYYTASDYPVVKLLRDPIYVEVSIHQRTDPSLELRLDQCWATPGADALLQPQWPLLVNGCPYTGDNYQTKLIPVWEASDLPFPSHYQRFSISTFSFVDSVAKRALKGPVYLHCSASVCQPAGTPSCVTLCPARRRR"}},
  "data": [
    {"variants_of": "B1", "test": "co-precipitation (TALON resin pull-down of His-tagged ZP3 fragment, anti-FLAG Western blot quantified with NIH ImageJ)", "conditions": "with bovine ZP4 (Lys-25 to Arg-464) with N-terminal FLAG-tag and S-tag [bovine]; parent: 100; read off a plot", "units": {"percent of parent": "%"}, "values": [
      {"variant": "chain 1 RFRPSKPPAVMVECQEAQLVVTVDKDLFGTGKLIRPADLTLGPDNCEPLASADTDGVVRFAVGLHECGNILQVTDNALVYSTFLLHNPRPAGDLSILRTNRAEVPIECHYPRQGNVSSWAIQPTWVPFRTTVFSEEKLVFSLRLMEE", "note": "[chain 1 N93D]", "percent of parent": 100},
      {"variant": "chain 1 RFRPSKPPAVMVECQEAQLVVTVDKDLFGTGKLIRPADLTLGPDNCEPLASADTDGVVRFAVGLHECGNILQVTDNALVYSTFLLHNPRPAGNLSILRTNRAEVPIECHYPRQGDVSSWAIQPTWVPFRTTVFSEEKLVFSLRLMEE", "note": "[chain 1 N115D]", "percent of parent": 130},
      {"variant": "chain 1 RFRPSKPPAVMVECQEAQLVVTVDKDLFGTGKLIRPADLTLGPDNCEPLASADTDGVVRFAVGLHECGNILQVTDNALVYSTFLLHNPRPAGDLSILRTNRAEVPIECHYPRQGDVSSWAIQPTWVPFRTTVFSEEKLVFSLRLMEE", "note": "[chain 1 N93D N115D]", "percent of parent": 110}
    ]}
  ]
}
